The source of these data is publication PMC3410853 (PLoS Pathogens, 2012).

Series [1] has as its target porcine aminopeptidase N (pAPN) on the surface of BHK-pAPN cells (UniProt P15145). The series can be described thus: flow cytometry on cells (FACS, percentage of stained cells). The following applies: same concentration of wild type and mutant SA-Fc proteins, parent: est. 100, read off a plot. In general terms: A flow cytometer gives signals particle by particle.
Series [2] deals with SA-Fc fusion protein (bivalent SA-Fc variant; TGEV S residues 481 to 650). The description is as above. Conditions: transiently transfected 293T cells expressing similar amounts of HA-tagged pAPN proteins; parent: est. 100; read off a plot.
Series [3] concerns the molecule itself. Description: SEC; soluble pAPN ectodomain on Superdex 200 16/60, HEPES-saline buffer pH 7.5.
The target in series [4] is T1, SA-Fc fusion protein (bivalent SA-Fc variant; TGEV S residues 481 to 650) (Transmissible gastroenteritis virus …, strain).
T1 construct: not shown: HA, N-terminal, kept; Fc (human IgG1), C-terminal, kept
T1 chain: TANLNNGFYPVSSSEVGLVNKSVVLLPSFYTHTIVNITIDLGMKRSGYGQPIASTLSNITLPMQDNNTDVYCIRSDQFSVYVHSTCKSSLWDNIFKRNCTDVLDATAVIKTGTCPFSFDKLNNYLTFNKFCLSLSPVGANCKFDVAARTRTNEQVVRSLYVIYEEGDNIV
Description: ELISA.

For “SA-Fc fusion protein (bivalent SA-Fc variant; TGEV S residues 481 to 650) N632A”, in series [1], the percent of parent was found to be 15%.
Same read-out and setting: the figure for “SA-Fc fusion protein (bivalent SA-Fc variant; TGEV S residues 481 to 650) V617Ngly” is 105%.
Regarding “recombinant membrane bound pAPN with an HA tag at the C-terminal end (from UniProt P15145) N736A”, the percent of parent in series [2] came to 3%.
The same measure, in the same setting: the figure for “recombinant membrane bound pAPN with an HA tag at the C-terminal end (from UniProt P15145) T738V” is 3%.

B1: engineered soluble pAPN (ectodomain, residues 36 to 963) (domain or fragment)
chain: EKNKNAEHVPQAPTSPTITTTAAITLDQSKPWNRYRLPTTLLPDSYNVTLRPYLTPNADGLYIFKGKSIVRLLCQEPTDVIIIHSKKLNYTTQGHMVVLRGVGDSQVPEIDRTELVELTEYLVVHLKGSLQPGHMYEMESEFQGELADDLAGFYRSEYMEGNVKKVLATTQMQSTDARKSFPCFDEPAMKATFNITLIHPNNLTALSNMPPKGSSTPLAEDPNWSVTEFETTPVMSTYLLAYIVSEFQSVNETAQNGVLIRIWARPNAIAEGHGMYALNVTGPILNFFANHYNTSYPLPKSDQIALPDFNAGAMENWGLVTYRENALLFDPQSSSISNKERVVTVIAHELAHQWFGNLVTLAWWNDLWLNEGFASYVEYLGADHAEPTWNLKDLIVPGDVYRVMAVDALASSHPLTTPAEEVNTPAQISEMFDSISYSKGASVIRMLSNFLTEDLFKEGLASYLHAFAYQNTTYLDLWEHLQKAVDAQTSIRLPDTVRAIMDRWTLQMGFPVITVDTKTGNISQKHFLLDSESNVTRSSAFDYLWIVPISSIKNGVMQDHYWLRDVSQAQNDLFKTASDDWVLLNVNVTGYFQVNYDEDNWRMIQHQLQTNLSVIPVINRAQVIYDSFNLATAHMVPVTLALDNTLFLNGEKEYMPWQAALSSLSYFSLMFDRSEVYGPMKKYLRKQVEPLFQHFETLTKNWTERPENLMDQYSEINAISTACSNGLPQCENLAKTLFDQWMSDPENNPIHPNLRSTIYCNAIAQGGQDQWDFAWGQLQQAQLVNEADKLRSALACSNEVWLLNRYLGYTLNPDLIRKQDATSTINSIASNVIGQPLAWDFVQSNWKKLFQDYGGGSFSFSNLIQGVTRRFSSEFELQQLEQFKKNNMDVGFGSGTRALEQALEKTKANIKWVKENKEVVLNWFIEHS
In general, stoichiometry N refers to the number of molecules, sites or subunits per partner or assembly. With B1, the “stoichiometry N” value in series [3] came to 2.

B2: TGEV-neutralizing monoclonal antibody 1AF10 (site A, subsite Ac) (antibody, V domains shown)
VH: QVQLQQSGPELVKPGASVKISCKASGYAFSSSWMNWVKQRPGQGLEWIGRIYPGDGETNYSEKFKGKATLTADKSSSTAYMHLSSLTSVDSAVYFCARGGYRYDPYYAMDYWGQGTSVTVSS
VL: DILLTQSPAILSVSPGERVSLSCRASQSIGTSIHWYQQRTNGSPRPLIKYASESISGIPSRFSGSGSGTDFTLNINSVESEDIADYFCQQTDSWPTTFGAGTKLELK
notes: also called 1AF10 mAb; mAb 1AF10; source: hybridoma cells; purified mAb or hybridoma supernatant; copies: 2 + 2
For the molecule B2, the binding result in series [4] is given as “binds”.
